The results in this text go back to patent US20210047411A1 (BIOND BIOLOGICS, published 2021).

Assay [1] addresses T1, BSA conjugated CD28 stalk region dimeric peptide (human, not fully specified (C-terminus); also: hydrazide-terminated peptide conjugated to S-4FB modified BSA, dimeric peptide).
T1 construct: Dimeric peptide; dimerization confirmed on a non-denaturing gel; also called stalk region peptide; dimeric human CD28 stalk region peptide
T1 peptide: GKHLCPSPLFPGPSKPK
The assay can be described thus: ELISA, antigen on plate, serial dilution of antibody. A general note: In an ELISA, binding on a coated surface is turned into a signal by an enzyme label.

The target in assay [2] is Irrelevant control (Table 1). In words: ELISA, same clone on the irrelevant control; unit not given.
For assay [3], the target named is T2, recombinant human CD28 (R&D systems, Cat. No. 342-CD; human CD28-Ig chimera) (human, UniProt P10747 19-152).
T2 construct: extracellular domain; also called rhCD28; recombinant human sCD28; not shown: Ig (Fc) portion of the bought chimera; not specified
In words: direct ELISA, recombinant human sCD28 on maxisorp plates; reference CD28.2.

The target of assay [4] is T2, recombinant human CD28 (R&D systems, …). The assay can be described thus: direct ELISA, recombinant human sCD28 on maxisorp plates.

No end group written: not given here.

B1: clone M9 (antibody, V domains shown)
VH: DVKLVESGGGLVKLGGSLKLSCVASGFTFSSYYMSWVRQTPEKRLEWVATISDGGDNTYYAGTVTGRFTISRDFAKNTLYLQMNSLTSEDTAVYYCARIHWPYYFDSWGQGTTLTVSS
VL: QFVLSQSPAILSASPGEMLTMTCRASSSVSYMNWYQQKPGSSPKPWIYATSDLASGVPARFSGSGSGTSYSLTISRVEAEDAATYYCQQWSSHPPTFGGGTKLEIR
notes: also called 4G07; antibody M9
Take B1: the binding result in assay [1] was “binds”. This molecule showed an ELISA signal on irrelevant control in assay [2] of 0.06.

B2: Antibody #1 (antibody, mouse IgG1, kappa, V domains shown)
VH: QIQLVQSGPELKKPGETVKISCKASGYTLTNYGMNWVKQAPGKGLKWMGWINTYTGKPTYVDDFKGRFAFSLETSASTAYLQINNLKNEDTATYFCARGDANQQFAYWGQGTLVTVSA
VL: DIKMTQSPSSMYASLGERVTITCKASQDINSYLSWFQQKPGKSPKTLIYRANRLVDGVPSRFSGSGSGQDYSLTISSLEYDDMGIYYCLQYDEFPPTFGAGTKLELKR
For B2, the “fold detection against CD28.2” value in assay [3] was roughly 10 fold.

B3: Antibody #2 (antibody, mouse IgG2b, kappa, V domains shown)
VH: QVQLQQSGAELARPGASVKLSCKASGYTFTSYWMQWIKKRPGQGLEWIGAIYPGDGDTRYTQKFKGKATLTADKSSTTAYMQLSSLASEDSAVYFCARNYRYSSFGYWGQGTLVTVSA
VL: DIVMTQSPSSLTVTAGEKVTLSCKSSQSLLNSGNQKNYLTWYQQKPGQPPQLLIYWASTRESGVPDRFTGSGSGTDFTLTISSVQAEDLAVYYCQSDYSYPLTFGAGTKLELKR
As to B3, the binding result in assay [4] is “binds”.
